Reference: paper doi:10.1101/2025.11.16.688685

Assays:
hRNMT 120-476 [1] = biological target: T1, hRNMT 120-476 (Homo sapiens, UniProt O43148 120-476); assay: pull-down
hRNMT 1-185 [2] = biological target: T2, hRNMT 1-185 (Homo sapiens, UniProt O43148 1-185); assay: pull-down
hRNMT WT [3] = biological target: T3, hRNMT WT (Homo sapiens, UniProt O43148 1-476); assay: pull-down
hRNMT WT;RAM 1-90 = hRNMT WT;RAM 1-90 (Homo sapiens;Homo sapiens?, UniProt O43148;Q9BTL3 1-476;1-90, |); assay: EMSA
hRNMT 120-476 [4] = biological target: T1, hRNMT 120-476; assay: EMSA
hRNMT 1-185 [5] = biological target: T2, hRNMT 1-185; assay: EMSA
hRNMT WT [6] = biological target: T3, hRNMT WT; assay: EMSA

Measured: binding result

T1 sequence (O43148 120-476): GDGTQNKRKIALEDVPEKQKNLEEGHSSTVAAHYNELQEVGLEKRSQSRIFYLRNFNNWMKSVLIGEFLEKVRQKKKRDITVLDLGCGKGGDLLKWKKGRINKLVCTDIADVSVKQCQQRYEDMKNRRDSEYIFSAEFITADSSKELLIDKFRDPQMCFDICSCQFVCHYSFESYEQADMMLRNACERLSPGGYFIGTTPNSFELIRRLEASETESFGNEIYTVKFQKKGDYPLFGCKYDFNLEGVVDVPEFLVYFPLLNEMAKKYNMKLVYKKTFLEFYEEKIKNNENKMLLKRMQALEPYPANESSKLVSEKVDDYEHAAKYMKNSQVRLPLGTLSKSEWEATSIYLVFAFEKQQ
T2 sequence (O43148 1-185): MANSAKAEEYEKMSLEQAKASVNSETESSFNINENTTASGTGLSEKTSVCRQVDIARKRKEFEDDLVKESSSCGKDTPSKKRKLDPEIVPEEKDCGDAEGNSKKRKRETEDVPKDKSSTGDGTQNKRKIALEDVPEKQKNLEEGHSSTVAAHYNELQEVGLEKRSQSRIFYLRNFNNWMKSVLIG
hRNMT WT;RAM 1-90, sequence (O43148 whole entry, chain 1 of 2): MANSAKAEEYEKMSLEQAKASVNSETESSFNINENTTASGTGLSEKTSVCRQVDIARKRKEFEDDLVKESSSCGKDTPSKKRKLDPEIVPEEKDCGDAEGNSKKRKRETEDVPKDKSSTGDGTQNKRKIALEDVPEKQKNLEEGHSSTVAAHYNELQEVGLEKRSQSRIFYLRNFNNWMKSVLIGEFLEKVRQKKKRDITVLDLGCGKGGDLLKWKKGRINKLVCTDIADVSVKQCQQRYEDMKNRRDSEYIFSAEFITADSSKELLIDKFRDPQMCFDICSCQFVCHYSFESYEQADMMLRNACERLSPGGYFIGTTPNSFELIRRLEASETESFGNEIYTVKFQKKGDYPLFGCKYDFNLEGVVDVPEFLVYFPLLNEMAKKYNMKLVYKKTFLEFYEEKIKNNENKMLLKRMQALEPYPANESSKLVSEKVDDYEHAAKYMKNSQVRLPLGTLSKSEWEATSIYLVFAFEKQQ
hRNMT WT;RAM 1-90, sequence (Q9BTL3 1-90, chain 2 of 2): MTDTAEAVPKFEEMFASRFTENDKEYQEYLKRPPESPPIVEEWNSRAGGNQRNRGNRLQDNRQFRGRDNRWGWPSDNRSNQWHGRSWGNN
T3 sequence (O43148 whole entry): as the sequence (O43148 whole entry, chain 1 of 2) above

UGUGGGAGGGGCGGGUGUGGGUGC (structured_RNA) [NRAS rG4]
binds: hRNMT 120-476 [1] | hRNMT 1-185 [2] | hRNMT WT [3]

B1: pGEM rG4 RNA (structured_RNA)
RNA: GGGCGAAUUGGGCCCGACGUCGCAUGUGUGGGAGGGGGCGGGUGUGGGUGCGAA
binds: hRNMT WT;RAM 1-90 | hRNMT 120-476 [4] | hRNMT 1-185 [5] | hRNMT WT [6]

B2: pGEM RNA (ssRNA)
RNA: GGGCGAAUUGGGCCCGACGUCGCAUGCUCCCGGCCGCCAUGGCGGCCGCGGGAA
binds: hRNMT WT;RAM 1-90 | hRNMT 120-476 [4]
